Test [1] addresses T1, 6G11 (BI‐1206), full‐length antibody containing the PGLALA Fc mutations (human). In words: ELISA. (In general: ELISA stands for enzyme-linked immunosorbent assay.)
The target in test [2] is T1, 6G11 (BI‐1206), full‐length antibody …. Description: BLI. Background: Biolayer interferometry detects binding as a change in optical thickness at a sensor tip.
For test [3] the target is unchanged. In words: ELISA; first of two printed values (3.3/28.7).
The target in test [4] is T2, S2B‐Y52A‐6G11 post MMP‐9 digestion (scFv cleaved off, not removed) (human | chicken). In words: BLI; MMP-9 cleaved.
Target sequence in this assay (heavy, as listed by the source, chain 2 of 2): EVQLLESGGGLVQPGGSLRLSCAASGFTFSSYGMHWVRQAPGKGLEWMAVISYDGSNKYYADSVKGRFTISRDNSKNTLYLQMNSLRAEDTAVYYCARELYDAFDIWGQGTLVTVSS
Target sequence in this assay (light, as listed by the source, chain 4 of 2): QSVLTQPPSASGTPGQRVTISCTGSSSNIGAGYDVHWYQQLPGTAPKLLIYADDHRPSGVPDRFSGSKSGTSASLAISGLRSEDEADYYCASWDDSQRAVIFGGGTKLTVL
Test [5] deals with T3, S2B‐R101A‐6G11 post MMP‐9 digestion (scFv cleaved off, not removed) (human | chicken). Description: BLI; MMP-9 cleaved.
Target sequence in this assay (heavy, as listed by the source, chain 2 of 2): as the sequence (heavy, as listed by the source, chain 2 of 2) above
Target sequence in this assay (light, as listed by the source, chain 4 of 2): as the sequence (light, as listed by the source, chain 4 of 2) above
The target in test [6] is T2, S2B‐Y52A‐6G11 post MMP‐9 digestion …. Description: BLI.
Test [7] deals with T3, S2B‐R101A‐6G11 post MMP‐9 digestion …. In words: BLI.
Test [8] deals with T4, S2B‐W104A‐6G11 post MMP‐9 digestion (scFv cleaved off, not removed) (human | chicken). Description: BLI.
The target of test [9] is T4, S2B‐W104A‐6G11 post MMP‐9 digestion …. In words: BLI; MMP-9 cleaved.
Target sequence in this assay (heavy, as listed by the source, chain 2 of 2): as the sequence (heavy, as listed by the source, chain 2 of 2) above
Target sequence in this assay (light, as listed by the source, chain 4 of 2): as the sequence (light, as listed by the source, chain 4 of 2) above

In PMC11629141 (2024) one finds EC50 and Kd data, which are given here for six molecules.

T1 sequence (VH, as listed by the source, chain 1 of 2): as the sequence (heavy, as listed by the source, chain 2 of 2) above
T1 sequence (VL, as listed by the source, chain 2 of 2): as the sequence (light, as listed by the source, chain 4 of 2) above

B1: S2B W104A scFv, solitary (scFv, V domains shown)
VH: AVTLDESGGGLQTPGGGLSLVCKASGFTFSSYSMVWVRQAPSKRLEWVAGIYSSATWTYYAPAVKGRATISRDNGQSTVRLQLNDLRAEDTGTYFCAKTSRSGATAYSASAIDAWGHGTEVIV
VL: ALTQPSSVSANPGETVKITCSGGSSYYGWYQQKSPGSAPVTVIYSNDKRPSDIPSRFSGSTSGSTATLTITGVQADDEAVYFCGGYDSNIHGGIFGAGTTLTVL
Take B1: the EC50 in test [1] stood at 6.7 nM. This molecule gave a Kd in test [2] of 9.6 nM.

B2: S2B S164A scFv, solitary (scFv, V domains shown)
VH: AVTLDESGGGLQTPGGGLSLVCKASGFTFSSYSMVWVRQAPSKRLEWVAGIYSSATWTYYAPAVKGRATISRDNGQSTVRLQLNDLRAEDTGTYFCAKTSRSGWTAYSASAIDAWGHGTEVIV
VL: ALTQPSSVSANPGETVKITCSGGASYYGWYQQKSPGSAPVTVIYSNDKRPSDIPSRFSGSTSGSTATLTITGVQADDEAVYFCGGYDSNIHGGIFGAGTTLTVL
For B2, the EC50 in test [1] was 2.7 nM. The affinity in [2], expressed as Kd, was 0.8 nM.

B3: S2B Y52A scFv, solitary (scFv, V domains shown)
VH: AVTLDESGGGLQTPGGGLSLVCKASGFTFSSYSMVWVRQAPSKRLEWVAGIASSATWTYYAPAVKGRATISRDNGQSTVRLQLNDLRAEDTGTYFCAKTSRSGWTAYSASAIDAWGHGTEVIV
VL: ALTQPSSVSANPGETVKITCSGGSSYYGWYQQKSPGSAPVTVIYSNDKRPSDIPSRFSGSTSGSTATLTITGVQADDEAVYFCGGYDSNIHGGIFGAGTTLTVL
Consider B3, for which, in [1], the midpoint of the response, the EC50, lay at 11.2 nM. The Kd in test [2] was found to be 4.3 nM.

B4: S2B R101A scFv, solitary (scFv, V domains shown)
VH: AVTLDESGGGLQTPGGGLSLVCKASGFTFSSYSMVWVRQAPSKRLEWVAGIYSSATWTYYAPAVKGRATISRDNGQSTVRLQLNDLRAEDTGTYFCAKTSASGWTAYSASAIDAWGHGTEVIV
VL: ALTQPSSVSANPGETVKITCSGGSSYYGWYQQKSPGSAPVTVIYSNDKRPSDIPSRFSGSTSGSTATLTITGVQADDEAVYFCGGYDSNIHGGIFGAGTTLTVL
In turn, B4 showed an EC50 in [1] of 3.7 nM.

B5: S2B scFv (blocking anti‐6G11 scFv clone 2), solitary (scFv, V domains shown)
VH: AVTLDESGGGLQTPGGGLSLVCKASGFTFSSYSMVWVRQAPSKRLEWVAGIYSSATWTYYAPAVKGRATISRDNGQSTVRLQLNDLRAEDTGTYFCAKTSRSGWTAYSASAIDAWGHGTEVIV
VL: ALTQPSSVSANPGETVKITCSGGSSYYGWYQQKSPGSAPVTVIYSNDKRPSDIPSRFSGSTSGSTATLTITGVQADDEAVYFCGGYDSNIHGGIFGAGTTLTVL
As for B5, the Kd in test [2] turned out to be 1 nM. For the same molecule, the EC50 in [3] worked out at 3.3 nM.

B6: His‐tagged human FcγRIIB extracellular domain protein (domain or fragment)
chain: TPAAPPKAVLKLEPQWINVLQEDSVTLTCRGTHSPESDSIQWFHNGNLIPTHTQPSYRFKANNNDSGEYTCQTGQTSLSDPVHLTVLSEWLVLQTPHLEFQEGETIVLRCHSWKDKPLVKVTFFQNGKSKKFSRSDPNFSIPQANHSHSGDYHCTGNIGYTLYSSKPVTITVQAP
As for B6, the dissociation constant (Kd) in test [4] stood at 10.1 nM; in test [5], 10.7 nM; in [6], 10.1 nM; in [7] it was 10.7 nM; in [8], 10.3 nM; in test [9], 10.3 nM.

As a reminder, the EC50 is the midpoint of the concentration-response curve. Lower therefore signals an effect from little substance. One may read the Kd as the constant that tells how readily two partners part at equilibrium.
